# In article PMC12395305 (ACS Central Science, 2025):
# B1: αGFP-S54C (VHH)
# VHH: QVQLVESGGALVQPGGSLRLSCAASGFPVNRYSMRWYRQAPGKEREWVAGMSCAGDRSSYEDSVKGRFTISRDDARNTVYLQMNSLKPEDTAVYYCNVNVGFEYWGQGTQVTVSS
# notes: as the chain of m1 (nanobody chain of PDB 3OGO) with S54C; In the functional rows it carries linker 3c-rho on C54 (PEABS αGFP-S54-3c-rho); also called cysteine mutant; αGFP-S54C nanobody; source: bacterial expression vector, expressed and purified
# Molecular target: T1, green fluorescent protein (Aequorea victoria, engineered EGFP-type …)
# T1 construct: green fluorescent protein; pI 5.4; also called GFP; GFP-wt; source: produced by the authors; expression and purification in the Supplementary Methods
# Experiment: SPR; αGFP nanobody variants and GFP; constants in Table S1; format and conditions not shown
# Conditions: both partners purified
binder,measurement,value
B1,fold reduction of affinity against the wild type,25 fold
